Results on one protein are retold here after publication PMC9872521.

Substrate in the data set: NCCc1ccc(O)c(O)c1
As to the kind of experiment: cells, lysate or membranes. As to conditions: sodium inward-facing conformation favors substrates.

B1: human dopamine transporter (hDAT) (Homo sapiens) (protein)
chain: MSKSKCSVGLMSSVVAPAKEPNAVGPKEVELILVKEQNGVQLTSSTLTNPRQSPVEAQDRETWGKKIDFLLSVIGFAVDLANVWRFPYLCYKNGGGAFLVPYLLFMVIAGMPLFYMELALGQFNREGAAGVWKICPILKGVGFTVILISLYVGFFYNVIIAWALHYLFSSFTTELPWIHCNNSWNSPNCSDAHPGDSSGDSSGLNDTFGTTPAAEYFERGVLHLHQSHGIDDLGPPRWQLTACLVLVIVLLYFSLWKGVKTSGKVVWITATMPYVVLTALLLRGVTLPGAIDGIRAYLSVDFYRLCEASVWIDAATQVCFSLGVGFGVLIAFSSYNKFTNNCYRDAIVTTSINSLTSFSSGFVVFSFLGYMAQKHSVPIGDVAKDGPGLIFIIYPEAIATLPLSSAWAVVFFIMLLTLGIDSAMGGMESVITGLIDEFQLLHRHRELFTLFIVLATFLLSLFCVTNGGIYVFTLLDHFAAGTSILFGVLIEAIGVAWFYGVGQFSDDIQQMTGQRPSLYWRLCWKLVSPCFLLFVVVVSIVTFRPPHYGAYIFPDWANALGWVIATSSMAMVPIYAAYKFCSLPGSFREKLAYAIAPEKDRELVDRGEVRQFTLRHWLKV
In general, Km refers to the concentration of substrate that gives half-maximal velocity. Turning to B1, the Km is 2.31 µM.
